Key:
[1] = SPR membrane binding to POPC/POPS vesicles; settings: for binding to POPC/POPS (80:20): RU/RUmax, 100 nM protein
Excerpt: It has been generally thought that Smad2 and Smad3 are targeted to the activated TGF-β signaling complex by direct interaction with TβRI ([1], [2]) or via SARA ([7]). However, it has been shown that many cytosolic proteins that are targeted to membrane proteins or membrane-anchored signaling complexes have affinity for membrane lipids ([14]), phosphoinositides (PtdInsPs) in particular, and that their membrane recruitment is mediated by coincident lipid–protein and protein–protein interactions ([15], [16]). For most of these proteins, their PtdInsP specificity directs their membrane targeting behaviors: e.g., PI(4,5)P2-specific proteins are recruited to PM where the highest concentration of PI(4,5)P2 is found, whereas PI(3)P-specific proteins are targeted to PI(3)P-rich EEs ([17], [18]). To resolve uncertainty about the functional location of the activated TGF-β signaling complex, we thus explored the possibility that lipid-binding activity of Smad2 may play a role in specific targeting of Smad2 to the active TGF-β receptor complex either at the PM or at EEs. Lipid-binding activity of Smad proteins has not been reported to date. We thus measured the binding of bacterially expressed Smad2 to large unilamellar vesicles (LUVs) containing various lipids by surface plasmon resonance (SPR) analysis ([19], [20]). Lipid selectivity determined by SPR analysis is typically reported as the relative resonance unit (RU) values for different lipids at a given protein concentration ([21], [22]). Although simple and intuitive, this type of analysis can sometimes yield misleading and erroneous results because some proteins show widely different RU values when bound to different lipid surfaces. Thus, a more reliable parameter that represents the fraction of the membrane bound protein molecules at a given protein concentration would be a normalized value of RU/RUmax where RUmax indicates the maximal RU value when a given lipid surface is saturated with the protein molecules. We thus estimated RUmax for different lipid species by employing the highest protein concentration experimentally feasible (e.g., 1 μM) and determined RU/RUmax for different lipids at the protein concentration that allows robust comparison (e.g., 100 nM). Once the lipid selectivity has been determined by this semiquantitative approach, we then rigorously determined and compared Kd values for selected lipids for more accurate quantitative determination of lipid selectivity.
Figure 1 Membrane-binding properties of Smad2 FL protein and MH2 domain determined by SPR analysis.A, PtdInsP selectivity of Smad2-FL determined using POPC/POPS/PtdInsP (77:20:3 in mole ratio) LUVs coated on the L1 sensor chip. The protein concentration was 100 nM. PIP3 indicates PI(3,4,5)P3. B, determination of Kd for binding of Smad2 FL to different LUVs. The protein concentration was varied from 0 to 500 nM. C, PI(4,5)P2 concentration dependence of membrane binding of Smad2-FL determined using POPC/POPS/PI(4,5)P2 (77-x:20:x, x = 0–5 mol%) LUVs. The protein concentration was 100 nM. D, PtdInsP selectivity of the Smad2 MH2 domain determined using POPC/POPS/PtdInsP (77:20:3 in mole ratio) LUVs. The protein concentration was 100 nM. Normalized RU values (RU/RUmax) were used for all figures but (C) for more accurate determination of PtdInsP selectivity. RUmax values determined for different vesicles at 1 μM Smad2 were: 280 ± 20 for POPC/POPS/PI(4,5)P2 (77:20:3), 370 ± 10 for POPC/POPS/PI(3,4)P2 (77:20:3), 400 ± 15 for POPC/POPS/PI(3,4,5)P3 (or PIP3) (77:20:3), 400 ± 20 for POPC/POPS/PI(3)P (77:20:3), and 380 ± 20 for POPC/POPS (80:20). Only the association phases of the sensorgrams are shown and used for further analysis. Each set of sensorgrams shown in A and D are representatives of >5 independent measurements. Data points shown in B and C are the average ±S.D. values from triplicate measurements. […]

[2] = SPR membrane binding to POPC/POPS/PI(3)P vesicles; settings: POPC/POPS/PI(3)P (77:20:3)
Excerpt: It has been generally thought that Smad2 and Smad3 are targeted to the activated TGF-β signaling complex by direct interaction with TβRI ([1], [2]) or via SARA ([7]). However, it has been shown that many cytosolic proteins that are targeted to membrane proteins or membrane-anchored signaling complexes have affinity for membrane lipids ([14]), phosphoinositides (PtdInsPs) in particular, and that their membrane recruitment is mediated by coincident lipid–protein and protein–protein interactions ([15], [16]). […] We thus measured the binding of bacterially expressed Smad2 to large unilamellar vesicles (LUVs) containing various lipids by surface plasmon resonance (SPR) analysis ([19], [20]). Lipid selectivity determined by SPR analysis is typically reported as the relative resonance unit (RU) values for different lipids at a given protein concentration ([21], [22]). […] We thus estimated RUmax for different lipid species by employing the highest protein concentration experimentally feasible (e.g., 1 μM) and determined RU/RUmax for different lipids at the protein concentration that allows robust comparison (e.g., 100 nM). Once the lipid selectivity has been determined by this semiquantitative approach, we then rigorously determined and compared Kd values for selected lipids for more accurate quantitative determination of lipid selectivity. […]

B1: Smad2-W422A: W422A mutant of full-length Smad2; specific PI(4,5)P2 binding-compromised (protein)
chain: MSSILPFTPPVVKRLLGWKKSAGGSGGAGGGEQNGQEEKWCEKAVKSLVKKLKKTGRLDELEKAITTQNCNTKCVTIPSTCSEIWGLSTANTVDQWDTTGLYSFSEQTRSLDGRLQVSHRKGLPHVIYCRLWRWPDLHSHHELKAIENCEYAFNLKKDEVCVNPYHYQRVETPVLPPVLVPRHTEILTELPPLDDYTHSIPENTNFPAGIEPQSNYIPETPPPGYISEDGETSDQQLNQSMDTGSPAELSPTTLSPVNHSLDLQPVTYSEPAFWCSIAYYELNQRVGETFHASQPSLTVDGFTDPSNSERFCLGLLSNVNRNATVEMTRRHIGRGVRLYYIGGEVFAECLSDSAIFVQSPNCNQRYGWHPATVCKIPPGCNLKIFNNQEFAALLAQSVNQGFEAVYQLTRMCTIRMSFVKGAGAEYRRQTVTSTPCWIELHLNGPLQWLDKVLTQMGSPSVRCSSMS
modifications: left off: His6, N-terminal, state not stated
With B1 the “binding to POPC/POPS (80:20)” value ([1]; SPR) was “much less effects on binding”.

B2: Smad2 WT: bacterially expressed full-length Smad2 wild-type (protein)
chain: MSSILPFTPPVVKRLLGWKKSAGGSGGAGGGEQNGQEEKWCEKAVKSLVKKLKKTGRLDELEKAITTQNCNTKCVTIPSTCSEIWGLSTANTVDQWDTTGLYSFSEQTRSLDGRLQVSHRKGLPHVIYCRLWRWPDLHSHHELKAIENCEYAFNLKKDEVCVNPYHYQRVETPVLPPVLVPRHTEILTELPPLDDYTHSIPENTNFPAGIEPQSNYIPETPPPGYISEDGETSDQQLNQSMDTGSPAELSPTTLSPVNHSLDLQPVTYSEPAFWCSIAYYELNQRVGETFHASQPSLTVDGFTDPSNSERFCLGLLSNVNRNATVEMTRRHIGRGVRLYYIGGEVFAECLSDSAIFVQSPNCNQRYGWHPATVCKIPPGCNLKIFNNQEFAALLAQSVNQGFEAVYQLTRMCTIRMSFVKGWGAEYRRQTVTSTPCWIELHLNGPLQWLDKVLTQMGSPSVRCSSMS
modifications: left off: His6, N-terminal, state not stated
notes: bacterially expressed full-length Smad2 wild-type
With B2 the RUmax ([1]; POPC/POPS (80:20), 1 μM Smad2) was 380 ± 20, the Kd ([1]; SPR, L1 chip, 23 °C, 20 mM Tris, pH 7.4, 0.16 M NaCl, POPC/POPS (80:20), average ±S.D., n = 3, read-out: Kd for lipid binding, PC/PS) was 560 ± 150 nM and the RUmax ([2]; 1 μM Smad2) was 400 ± 20. For the same molecule, the Kd ([2]; SPR, L1 chip, 23 °C, 20 mM Tris, pH 7.4, 0.16 M NaCl, average ±S.D., n = 3, read-out: Kd for lipid binding, PC/PS/PI(3)P) was 210 ± 34 nM.

B3: Smad2-K420A: K420A mutant of full-length Smad2; predominantly TβRI binding-compromised (protein)
chain: MSSILPFTPPVVKRLLGWKKSAGGSGGAGGGEQNGQEEKWCEKAVKSLVKKLKKTGRLDELEKAITTQNCNTKCVTIPSTCSEIWGLSTANTVDQWDTTGLYSFSEQTRSLDGRLQVSHRKGLPHVIYCRLWRWPDLHSHHELKAIENCEYAFNLKKDEVCVNPYHYQRVETPVLPPVLVPRHTEILTELPPLDDYTHSIPENTNFPAGIEPQSNYIPETPPPGYISEDGETSDQQLNQSMDTGSPAELSPTTLSPVNHSLDLQPVTYSEPAFWCSIAYYELNQRVGETFHASQPSLTVDGFTDPSNSERFCLGLLSNVNRNATVEMTRRHIGRGVRLYYIGGEVFAECLSDSAIFVQSPNCNQRYGWHPATVCKIPPGCNLKIFNNQEFAALLAQSVNQGFEAVYQLTRMCTIRMSFVAGWGAEYRRQTVTSTPCWIELHLNGPLQWLDKVLTQMGSPSVRCSSMS
modifications: left off: His6, N-terminal, state not stated
For B3, the “binding to POPC/POPS (80:20)” value ([1]; SPR) was “modestly and similarly reduced binding to both vesicles”.

B4: Smad2-Y426A: Y426A mutant of full-length Smad2; specific PI(4,5)P2 binding-compromised (protein)
chain: MSSILPFTPPVVKRLLGWKKSAGGSGGAGGGEQNGQEEKWCEKAVKSLVKKLKKTGRLDELEKAITTQNCNTKCVTIPSTCSEIWGLSTANTVDQWDTTGLYSFSEQTRSLDGRLQVSHRKGLPHVIYCRLWRWPDLHSHHELKAIENCEYAFNLKKDEVCVNPYHYQRVETPVLPPVLVPRHTEILTELPPLDDYTHSIPENTNFPAGIEPQSNYIPETPPPGYISEDGETSDQQLNQSMDTGSPAELSPTTLSPVNHSLDLQPVTYSEPAFWCSIAYYELNQRVGETFHASQPSLTVDGFTDPSNSERFCLGLLSNVNRNATVEMTRRHIGRGVRLYYIGGEVFAECLSDSAIFVQSPNCNQRYGWHPATVCKIPPGCNLKIFNNQEFAALLAQSVNQGFEAVYQLTRMCTIRMSFVKGWGAEARRQTVTSTPCWIELHLNGPLQWLDKVLTQMGSPSVRCSSMS
modifications: left off: His6, N-terminal, state not stated
With B4 the “binding to POPC/POPS (80:20)” value ([1]; SPR) was “much less effects on binding”.

B5: Smad2- R427A/R428A: double mutant of full-length Smad2; PI(4,5)P2 and TβRI binding-compromised (protein)
chain: MSSILPFTPPVVKRLLGWKKSAGGSGGAGGGEQNGQEEKWCEKAVKSLVKKLKKTGRLDELEKAITTQNCNTKCVTIPSTCSEIWGLSTANTVDQWDTTGLYSFSEQTRSLDGRLQVSHRKGLPHVIYCRLWRWPDLHSHHELKAIENCEYAFNLKKDEVCVNPYHYQRVETPVLPPVLVPRHTEILTELPPLDDYTHSIPENTNFPAGIEPQSNYIPETPPPGYISEDGETSDQQLNQSMDTGSPAELSPTTLSPVNHSLDLQPVTYSEPAFWCSIAYYELNQRVGETFHASQPSLTVDGFTDPSNSERFCLGLLSNVNRNATVEMTRRHIGRGVRLYYIGGEVFAECLSDSAIFVQSPNCNQRYGWHPATVCKIPPGCNLKIFNNQEFAALLAQSVNQGFEAVYQLTRMCTIRMSFVKGWGAEYAAQTVTSTPCWIELHLNGPLQWLDKVLTQMGSPSVRCSSMS
modifications: left off: His6, N-terminal, state not stated
In the case of B5, the “binding to POPC/POPS (80:20)” value ([1]; SPR) is reported as “much less effects on binding”.

Reference: PMC8567202, “Phosphoinositide-binding activity of Smad2 is essential for its function in TGF-β signaling” (The Journal of Biological Chemistry, 2021)
